Measurements as given in publication PMC7817833.

Experiments:
14-3-3γ [1] = molecular target: 14-3-3γ (UniProt P61981); assay: co-immunoprecipitation, western blot; settings: reference: wild-type ENDOG; sites T128,S288
14-3-3γ [2] = molecular target: 14-3-3γ (UniProt P61981); assay: co-immunoprecipitation of Myc-ENDOG, western blot; settings: reference: Myc-ENDOG wild type; sites T128,S288

ENDOG (Endonuclease G) (from UniProt Q14249) T128A/S288A (AA)
binding against the reference (14-3-3γ [1]): weaker

ENDOG (Endonuclease G) (from UniProt Q14249) Myc-ENDOG-AA (T128A/S288A)
binding against the reference (14-3-3γ [2]): weaker
